Measured values published in the supplement of paper PMC9170038.

Assays:
MS2 coat protein [1] = test: apparent KD of MS2 coat protein, switch ON state; designed switch direction (-1 OFF switch, 1 ON switch): -1; higher = weaker reporter binding; settings: FMN input: 0 or 200 uM; Eterna round: R93 (includes R88 designs)
Outline: (§1)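 On-chip transcription from Illumina sequencing clusters produced the designed RNA switches. These were titrated with SNAP-549-labelled MS2 coat protein (twofold steps, 0.7 or 1.5 nM to 3 µM) in 100 mM Tris-HCl pH 7.5, 80 mM KCl, 4 mM MgCl2, with or without constant ligand. The apparent KD given is the per-design median of normalised cluster binding-curve fits.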

MS2 coat protein [2] = test: apparent KD of MS2 coat protein, switch OFF state (with FMN for OFF switches, without FMN for ON switches); designed switch direction (-1 OFF switch, 1 ON switch): -1; higher = weaker reporter binding; settings: FMN input: 0 or 200 uM; Eterna round: R93 (includes R88 designs)
Outline: as §1

Sequence | apparent KD of MS2 coat protein (MS2 coat protein [1]) [nM] | apparent KD of MS2 coat protein (MS2 coat protein [2]) [nM]
CAGUACUGAGGAUAUACAUGAGGAUCACCCAUGUAUCCUAGCUAGGAAACUAGCAAAUGUAGAAGGCAGUACUG [Ex3: 818] | 47.6 | 503
CAGUGACAUGAGGAUCACCCAUGUUAGGAUAUGCGUGUUAGAAAAAAAAAGUUAAUAAGCAGAAGGAACAGUGG [JR_Exc001_Sub311] | 40.8 | 61.6
CGAAUGUAAGGAUAUAGCCACAUUACGAAUAAGUAGUGUGGCUAGAAGGUACAUGAGGAUCACCCAUGUAUGGG [Exclusion 4.5 (AU closing FMN)] | 181 | 51.7
CUCAAGUUAGGAUAUCAAAGAAAAGAAGAGAAAGAAAAGAAUGAGAAGGAACAUGAGGAUCACCCAUGUAAGAA [EteRNA is fun!] | 33.4 | 22.4
CUCAAGUUAGGAUAUCGAAGAAAAGAAGAGAAAGAAAAGAACGAGAAGGAACAUGAGGAUCACCCAUGUAAGAA [EteRNA is fun!] | 11.8 | 21.7
CUCAUGUCAGGAUAUCAGUAGUAAAAAAAAAAAAUUACUACUGAGAAGGGACAUGAGGAUCACCCAUGUCCAUU [EX4 304: Super Stable 4] | 53 | 36.9
CUCAUGUCAGGAUAUGUAGCAUGAUACGAAAGUAUCAUGCUACAGAAGGGACAUGAGGAUCACCCAUGUAAAAA [Ex4: 942] | 20.2 | 33.9
CUCAUGUGAGGAUAUCAGUAGUAAAAAAAUAAAAUUACUACUGAGAAGGCACAUGAGGAUCACCCAUGUGAAAA [EX4 339: Super Stable 39] | 27.4 | 16.1
CUCAUGUGAGGAUAUCAGUAGUAAAAAAAUAAAAUUACUACUGAGAAGGCACAUGAGGAUCACCCAUGUGUCUU [EX4 331: Super Stable 31] | 45.8 | 27.2
CUCUAGUCAGGAUAUCGAAGAAAAGAAGAGAAAGAAAAGAACGAGAAGGGACAUGAGGAUCACCCAUGUAAGAA [EteRNA is fun!] | 50 | 39.2
CUCUUGUCAGGAUAUGGAAGAAAAGAAAAGAAAGAAAAGAACCAGAAGGGACAUGAGGAUCACCCAUGUAAGAA [EteRNA is fun!] | 156 | 37.7
CUCUUGUCAGGAUAUGUAAGAAAAGAAAAGAAAGAAAAGAAACAGAAGGGACAUGAGGAUCACCCAUGUAAGAA [EteRNA is fun!] | 78.9 | 53.1
CUCUUGUGAGGAUAUCAAAGAAAAGAAAAGAAAGAAAAGAAUGAGAAGGCACAUGAGGAUCACCCAUGUAAGAA [EteRNA is fun!] | 36.4 | 59.5
CUUAAGUGAGGAUAUCAGUAGUAAAAAAAUAAAAUUACUACUGAGAAGGCACAUGAGGAUCACCCAUGUUCCAA [EX4 341: Super Stable 41] | 29.7 | 38.1
CUUAUGUGAGGAUAUGUACAGAAAAAACUGGGUGUAACUGUACAGAAGGCACAUGAGGAUCACCCAUGUAAAAA [EX4 387: S S Pseudoknot 12] | 36.4 | 31
GAAAAACAUGAGGAUCACCCAUGUCAGGAUAUCGAAAAAUAAAUAAAAAUAAAAUAAACGAGAAGGGACAAAAG [Mat - Same state - Mayanna Mod - D111] | 50.2 | 61.1
GAAAAAGGAGGAUAUACGUACAUGUCAAAAGACGUGAAGGGACAUGAGGAUCACCCAUGUAGAAGGCUUAAAAG [Mat - Exclusion 2 - JL mod - D95] | 59.4 | 21.4
GAAAAGUCAGGAUAUGCAGAUAAAAAAACGAAAAAAAAUCUGCAGAAGGGACAUGAGGAUCACCCAUGUAAAAG [Mat - Exclusion 4 - Mayanna - D110] | 66.3 | 54.2
